In patent publication US20230183336A1 (MODMAB THERAPEUTICS, published 2023):

Biological target: T1, recombinant mouse LRP5-His chimera (mouse, UniProt Q91VN0 31-1383)
T1 construct: extracellular domain; also called ECD of mouse LRP5; not shown: His tag
T1 sequence (looked up): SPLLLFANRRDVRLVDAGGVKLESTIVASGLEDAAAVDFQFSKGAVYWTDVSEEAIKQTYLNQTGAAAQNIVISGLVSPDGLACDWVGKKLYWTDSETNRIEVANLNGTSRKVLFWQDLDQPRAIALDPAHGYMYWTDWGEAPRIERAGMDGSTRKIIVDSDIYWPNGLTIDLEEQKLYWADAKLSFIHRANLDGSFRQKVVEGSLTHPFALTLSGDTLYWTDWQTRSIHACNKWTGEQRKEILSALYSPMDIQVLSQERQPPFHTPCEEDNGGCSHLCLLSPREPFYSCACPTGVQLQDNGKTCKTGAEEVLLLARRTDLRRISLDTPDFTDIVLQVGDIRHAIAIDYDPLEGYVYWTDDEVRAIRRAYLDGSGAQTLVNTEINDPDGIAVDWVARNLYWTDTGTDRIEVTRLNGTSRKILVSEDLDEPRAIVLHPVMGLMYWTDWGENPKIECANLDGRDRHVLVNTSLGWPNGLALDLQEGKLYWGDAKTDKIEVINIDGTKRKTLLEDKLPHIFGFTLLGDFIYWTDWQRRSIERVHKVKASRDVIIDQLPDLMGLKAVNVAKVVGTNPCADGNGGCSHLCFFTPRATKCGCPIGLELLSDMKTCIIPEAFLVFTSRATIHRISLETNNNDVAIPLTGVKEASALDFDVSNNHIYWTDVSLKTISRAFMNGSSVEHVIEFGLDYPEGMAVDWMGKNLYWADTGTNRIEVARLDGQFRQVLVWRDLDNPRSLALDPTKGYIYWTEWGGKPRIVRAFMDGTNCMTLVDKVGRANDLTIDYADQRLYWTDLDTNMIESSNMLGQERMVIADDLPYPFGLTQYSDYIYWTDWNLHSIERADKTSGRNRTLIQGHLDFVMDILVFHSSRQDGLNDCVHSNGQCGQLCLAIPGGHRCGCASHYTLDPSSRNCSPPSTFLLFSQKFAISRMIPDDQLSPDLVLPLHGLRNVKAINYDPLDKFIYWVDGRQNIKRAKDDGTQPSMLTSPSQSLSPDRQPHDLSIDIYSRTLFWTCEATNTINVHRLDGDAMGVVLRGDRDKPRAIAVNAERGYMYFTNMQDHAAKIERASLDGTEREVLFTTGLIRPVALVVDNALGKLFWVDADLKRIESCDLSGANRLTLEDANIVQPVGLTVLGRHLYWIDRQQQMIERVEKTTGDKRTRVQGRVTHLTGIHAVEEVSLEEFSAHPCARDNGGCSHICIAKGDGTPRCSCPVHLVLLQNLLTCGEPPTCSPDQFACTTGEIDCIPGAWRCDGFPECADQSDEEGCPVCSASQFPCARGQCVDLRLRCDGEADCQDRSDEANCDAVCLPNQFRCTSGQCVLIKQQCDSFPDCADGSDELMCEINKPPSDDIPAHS
Experiment: single-point ELISA, coated antigen, purified Fab or IgG1, anti-kappa-HRP

B1: LRP5-H5 (antibody, V domains shown)
VH: EVQLVESGGGLVQPGGSLRLSCAASGFNLSYSSIHWVRQAPGKGLEWVASISSSYGSTSYADSVKGRFTISADTSKNTAYLQMNSLRAEDTAVYYCARGYWAIDYWGQGTLVTVSS
VL: DIQMTQSPSSLSASVGDRVTITCRASQSVSSAVAWYQQKPGKAPKLLIYSASSLYSGVPSRFSGSRSGTDFTLTISSLQPEDFATYYCQQPVGHYGYPITFGQGTKVEIKR
notes: Fab-phage in the screen
binding result: binds
